US20160046724A1 (Novartis, published 2016)

T1: BCMA-Fc antigen (UniProt Q02223 5-51, limits assumed)
T1 construct: Bought reagent; also called BCMA fc fusion protein; recombinant BCMA-Fc; not shown: Fc region
T1 chain (looked up): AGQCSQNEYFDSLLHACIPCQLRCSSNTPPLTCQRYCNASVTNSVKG

B1: BCMA-1 CAR (other)
chain: QVQLVQSGAEVRKTGASVKVSCKASGYIFDNFGINWVRQAPGQGLEWMGWINPKNNNTNYAQKFQGRVTITADESTNTAYMEVSSLRSEDTAVYYCARGPYYYQSYMDVWGQGTMVTVSSASGGGGSGGRASGGGGSDIVMTQTPLSLPVTPGEPASISCRSSQSLLHSNGYNYLNWYLQKPGQSPQLLIYLGSKRASGVPDRFSGSGSGTDFTLHITRVGAEDVGVYYCMQALQTPYTFGQGTKLEIKTTTPAPRPPTPAPTIASQPLSLRPEACRPAAGGAVHTRGLDFACDIYIWAPLAGTCGVLLLSLVITLYCKRGRKKLLYIFKQPFMRPVQTTQEEDGCSCRFPEEEEGGCELRVKFSRSADAPAYKQGQNQLYNELNLGRREEYDVLDKRRGRDPEMGGKPRRKNPQEGLYNELQKDKMAEAYSEIGMKGERRRGKGHDGLYQGLSTATKDTYDALHMQALPPR
notes: also called 139100 Full CAR; ER95-03VA
B2: BCMA-7 CAR (other)
chain: EVQLVETGGGLVQPGGSLRLSCAVSGFALSNHGMSWVRRAPGKGLEWVSGIVYSGSTYYAASVKGRFTISRDNSRNTLYLQMNSLRPEDTAIYYCSAHGGESDVWGQGTTVTVSSASGGGGSGGRASGGGGSEIVMTQSPATLSVSPGERATLSCRASQSVSSKLAWYQQKPGQAPRLLMYGASIRATGIPDRFSGSGSGTEFTLTISSLEPEDFAVYYCQQYGSSSWTFGQGTKVEIKTTTPAPRPPTPAPTIASQPLSLRPEACRPAAGGAVHTRGLDFACDIYIWAPLAGTCGVLLLSLVITLYCKRGRKKLLYIFKQPFMRPVQTTQEEDGCSCRFPEEEEGGCELRVKFSRSADAPAYKQGQNQLYNELNLGRREEYDVLDKRRGRDPEMGGKPRRKNPQEGLYNELQKDKMAEAYSEIGMKGERRRGKGHDGLYQGLSTATKDTYDALHMQALPPR
notes: also called 139106 Full CAR; QR91-12ZA
B3: BCMA-11 CAR (other)
chain: QVQLVQSGGGLVKPGGSLRLSCAASGFTFSDYYMSWIRQAPGKGLEWVSYISSSGNTIYYADSVKGRFTISRDNAKNSLYLQMNSLRAEDTAVYYCARSTMVREDYWGQGTLVTVSSASGGGGSGGRASGGGGSDIVLTQSPLSLPVTLGQPASISCKSSESLVHNSGKTYLNWFHQRPGQSPRRLIYEVSNRDSGVPDRFTGSGSGTDFTLKISRVEAEDVGVYYCMQGTHWPGTFGQGTKLEIKTTTPAPRPPTPAPTIASQPLSLRPEACRPAAGGAVHTRGLDFACDIYIWAPLAGTCGVLLLSLVITLYCKRGRKKLLYIFKQPFMRPVQTTQEEDGCSCRFPEEEEGGCELRVKFSRSADAPAYKQGQNQLYNELNLGRREEYDVLDKRRGRDPEMGGKPRRKNPQEGLYNELQKDKMAEAYSEIGMKGERRRGKGHDGLYQGLSTATKDTYDALHMQALPPR
notes: also called 139110 Full CAR; UG65-93FB
B4: BCMA-3 CAR (other)
chain: QVQLVQSGAEVKKPGASVKVSCKASGYTFSNYGITWVRQAPGQGLEWMGWISAYNGNTNYAQKFQGRVTMTRNTSISTAYMELSSLRSEDTAVYYCARGPYYYYMDVWGKGTMVTVSSASGGGGSGGRASGGGGSEIVMTQSPLSLPVTPGEPASISCRSSQSLLYSNGYNYVDWYLQKPGQSPQLLIYLGSNRASGVPDRFSGSGSGTDFKLQISRVEAEDVGIYYCMQGRQFPYSFGQGTKVEIKTTTPAPRPPTPAPTIASQPLSLRPEACRPAAGGAVHTRGLDFACDIYIWAPLAGTCGVLLLSLVITLYCKRGRKKLLYIFKQPFMRPVQTTQEEDGCSCRFPEEEEGGCELRVKFSRSADAPAYKQGQNQLYNELNLGRREEYDVLDKRRGRDPEMGGKPRRKNPQEGLYNELQKDKMAEAYSEIGMKGERRRGKGHDGLYQGLSTATKDTYDALHMQALPPR
notes: Chimeric antigen receptor; 0.0 % CAR+ on JNL cells by BCMA-Fc detection; also called 139102 Full CAR; KR98-03KA
B5: BCMA-9 CAR (other)
chain: QVQLVESGGGLVKPGGSLRLSCAASGFTFSDYYMSWIRQAPGKGLEWVSYISSSGSTIYYADSVKGRFTISRDNAKNSLYLQMNSLRAEDTAVYYCARESGDGMDVWGQGTTVTVSSASGGGGSGGRASGGGGSDIQMTQSPSSLSASVGDRVTITCRASQSISSYLNWYQQKPGKAPKLLIYAASSLQSGVPSRFSGSGSGTDFTLTISSLQPEDFATYYCQQSYTLAFGQGTKVDIKTTTPAPRPPTPAPTIASQPLSLRPEACRPAAGGAVHTRGLDFACDIYIWAPLAGTCGVLLLSLVITLYCKRGRKKLLYIFKQPFMRPVQTTQEEDGCSCRFPEEEEGGCELRVKFSRSADAPAYKQGQNQLYNELNLGRREEYDVLDKRRGRDPEMGGKPRRKNPQEGLYNELQKDKMAEAYSEIGMKGERRRGKGHDGLYQGLSTATKDTYDALHMQALPPR
notes: also called 139108 Full CAR; OG62-93QB
B6: BCMA-5 CAR (other)
chain: EVQLLETGGGLVQPGGSLRLSCAVSGFALSNHGMSWVRRAPGKGLEWVSGIVYSGSTYYAASVKGRFTISRDNSRNTLYLQMNSLRPEDTAIYYCSAHGGESDVWGQGTTVTVSSASGGGGSGGRASGGGGSEIVLTQSPATLSVSPGESATLSCRASQSVSSNLAWYQQKPGQAPRLLIYGASTRASGIPDRFSGSGSGTDFTLTISSLQAEDVAVYYCQQYGSSLTFGGGTKVEIKTTTPAPRPPTPAPTIASQPLSLRPEACRPAAGGAVHTRGLDFACDIYIWAPLAGTCGVLLLSLVITLYCKRGRKKLLYIFKQPFMRPVQTTQEEDGCSCRFPEEEEGGCELRVKFSRSADAPAYKQGQNQLYNELNLGRREEYDVLDKRRGRDPEMGGKPRRKNPQEGLYNELQKDKMAEAYSEIGMKGERRRGKGHDGLYQGLSTATKDTYDALHMQALPPR
notes: also called 139104 Full CAR; AR99-08FA
B7: BCMA-4 CAR (other)
chain: QVQLVESGGGLVQPGRSLRLSCAASGFTFSNYAMSWVRQAPGKGLGWVSGISRSGENTYYADSVKGRFTISRDNSKNTLYLQMNSLRDEDTAVYYCARSPAHYYGGMDVWGQGTTVTVSSASGGGGSGGRASGGGGSDIVLTQSPGTLSLSPGERATLSCRASQSISSSFLAWYQQKPGQAPRLLIYGASRRATGIPDRFSGSGSGTDFTLTISRLEPEDSAVYYCQQYHSSPSWTFGQGTKLEIKTTTPAPRPPTPAPTIASQPLSLRPEACRPAAGGAVHTRGLDFACDIYIWAPLAGTCGVLLLSLVITLYCKRGRKKLLYIFKQPFMRPVQTTQEEDGCSCRFPEEEEGGCELRVKFSRSADAPAYKQGQNQLYNELNLGRREEYDVLDKRRGRDPEMGGKPRRKNPQEGLYNELQKDKMAEAYSEIGMKGERRRGKGHDGLYQGLSTATKDTYDALHMQALPPR
notes: also called 139103 Full CAR; JF32-78IB
B8: BCMA-2 CAR (other)
chain: QVQLQESGGGLVQPGGSLRLSCAASGFTFSSDAMTWVRQAPGKGLEWVSVISGSGGTTYYADSVKGRFTISRDNSKNTLYLQMNSLRAEDTAVYYCAKLDSSGYYYARGPRYWGQGTLVTVSSASGGGGSGGRASGGGGSDIQLTQSPSSLSASVGDRVTITCRASQSISSYLNWYQQKPGKAPKLLIYGASTLASGVPARFSGSGSGTHFTLTINSLQSEDSATYYCQQSYKRASFGQGTKVEIKTTTPAPRPPTPAPTIASQPLSLRPEACRPAAGGAVHTRGLDFACDIYIWAPLAGTCGVLLLSLVITLYCKRGRKKLLYIFKQPFMRPVQTTQEEDGCSCRFPEEEEGGCELRVKFSRSADAPAYKQGQNQLYNELNLGRREEYDVLDKRRGRDPEMGGKPRRKNPQEGLYNELQKDKMAEAYSEIGMKGERRRGKGHDGLYQGLSTATKDTYDALHMQALPPR
notes: also called 139101 Full CAR; UR96-08PA

Molecular target: T1, BCMA-Fc antigen
Test: flow cytometry of CAR-transduced JNL cells stained with BCMA-Fc antigen
Experimental: Jurkat-NFAT-luciferase (JNL) cells transduced with BCMA CAR constructs were evaluated for activation in response to BCMA-expressing target cell lines. Small-scale viral supernatant samples were generated in HEK293T cells for transduction of JNL cells. On Day 3 following transduction, BCMA CAR-transduced JNL cells were incubated with target cells at an effector-to-target (E:T) ratio of 6:1. Target cell lines were: K562-BCMA (engineered to stably express BCMA), K562 (parental line), and BCMA positive multiple myeloma cell lines, NCI-H929 and RPMI 8226. JNL activation was measured using Bright-Glo substrate (Promega) on Day 4. CAR expression on transduced JNL was assessed on Day 7 with BCMA-Fc antigen and Biotin-Protein L reagent (Table 7).

Going from B1 to B2, the “% CAR+ (BCMA-Fc detection)” value falls from 72.1% to 30.4%.

Going from B3 to B4, the “% CAR+ (BCMA-Fc detection)” value falls from 42.7% to 0%.

Going from B5 to B6, the “% CAR+ (BCMA-Fc detection)” value falls from 54.7% to 28.9%.

Compared with B7, B8 is lower in “% CAR+ (BCMA-Fc detection)” value: 49.5% for the first, 32% for the second.
